In PMC11705074:
Where two headings read alike, the source gives them in different places.

What was measured:
[1] = molecular target: T1, HhpR (Pyrococcus yayanosii A1, UniProt F8AFU3 1-281); assay: fluorescence polarization
T1 sequence: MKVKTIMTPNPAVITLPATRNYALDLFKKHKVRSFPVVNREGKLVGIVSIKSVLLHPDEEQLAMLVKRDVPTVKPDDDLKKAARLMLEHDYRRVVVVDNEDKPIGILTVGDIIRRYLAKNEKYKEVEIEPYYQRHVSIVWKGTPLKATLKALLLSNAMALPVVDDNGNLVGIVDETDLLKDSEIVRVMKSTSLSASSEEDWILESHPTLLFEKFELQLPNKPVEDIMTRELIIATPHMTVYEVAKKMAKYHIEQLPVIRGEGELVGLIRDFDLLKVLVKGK

[2] = molecular target: T1, HhpR; assay: fluorescence polarization; remark: listed apart in the source

B1: 44-bp Phhp (dsDNA)
DNA 1: CATATAAAAATTGTTGGGCAAATCTGCCCAGAAAAGCTTAAAAG
DNA 2: CTTTTAAGCTTTTCTGGGCAGATTTGCCCAACAATTTTTATATG
[1]
  Kd: 1900 ± 400 nM
[2]
  Kd: 650 ± 370 nM
